# According to article PMC9972567:
# Molecular target: Ep300 (UniProt B2RWS6)
# Test: anti-V5 IP, Ep300 immunoblot
# Details: reference: wild type; sites S656
substance,measurement,value
PIMT/TGS1 (human PIMT-V5) (from UniProt Q96RS0) S656A,binding against the reference,weaker
